Publication PMC9801259

Biological target: OGG1 (UniProt O15527 1-345)
Assay: EMSA

OGG1, sequence (O15527 whole entry): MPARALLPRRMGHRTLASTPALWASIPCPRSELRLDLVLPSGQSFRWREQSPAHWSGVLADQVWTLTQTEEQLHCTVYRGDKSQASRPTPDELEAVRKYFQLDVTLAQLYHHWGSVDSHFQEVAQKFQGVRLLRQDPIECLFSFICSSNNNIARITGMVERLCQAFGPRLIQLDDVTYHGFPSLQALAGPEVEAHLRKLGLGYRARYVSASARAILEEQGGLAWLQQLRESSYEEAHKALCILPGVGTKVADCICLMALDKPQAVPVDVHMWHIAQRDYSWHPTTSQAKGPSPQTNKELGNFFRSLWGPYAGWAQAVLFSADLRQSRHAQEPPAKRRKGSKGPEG

B1: 8-oxo(d)Gua and NF-kB motif probe (Cxcl2 promoter) (dsDNA)
DNA 1: TTCCCTGGTCCCCGGGCTTTTCCAGACATCG
DNA 2: CGATGTCTGGAAAAGCCCGGGGACCAGGGAA
modifications: 8-oxo-dG in antisense strand, printed CCAG*GGAA (G after the asterisk, position 28)
Question: Does B1 bind?
Answer: binds
